T1: recombinant human CD38 extracellular region protein (Val 43-Ile 300) with N-terminal 6×his tag (human, UniProt P28907 43-300)
T1 construct: range 43-300; Expressed in HEK293.6E cells and purified on a nickel chelate column; also called human CD38 recombinant protein; human CD38 protein
T1 sequence: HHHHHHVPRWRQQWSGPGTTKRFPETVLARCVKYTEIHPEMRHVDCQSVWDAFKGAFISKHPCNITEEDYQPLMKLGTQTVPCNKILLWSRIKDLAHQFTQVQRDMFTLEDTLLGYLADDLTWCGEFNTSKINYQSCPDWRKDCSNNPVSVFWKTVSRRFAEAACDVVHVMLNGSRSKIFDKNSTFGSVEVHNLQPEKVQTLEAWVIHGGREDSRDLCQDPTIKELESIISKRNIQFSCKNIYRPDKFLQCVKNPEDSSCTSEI

T2: human CD38 expressed on tumor cells (Daudi, NALM-6, Ramos.2G6.4C10, TALL-1) (human, UniProt P28907 1-300)
T2 construct: whole, on cells; Endogenous CD38 on human tumor cell lines; also called CD38 molecules expressed on Daudi; CD38 on Daudi cells
T2 sequence (looked up): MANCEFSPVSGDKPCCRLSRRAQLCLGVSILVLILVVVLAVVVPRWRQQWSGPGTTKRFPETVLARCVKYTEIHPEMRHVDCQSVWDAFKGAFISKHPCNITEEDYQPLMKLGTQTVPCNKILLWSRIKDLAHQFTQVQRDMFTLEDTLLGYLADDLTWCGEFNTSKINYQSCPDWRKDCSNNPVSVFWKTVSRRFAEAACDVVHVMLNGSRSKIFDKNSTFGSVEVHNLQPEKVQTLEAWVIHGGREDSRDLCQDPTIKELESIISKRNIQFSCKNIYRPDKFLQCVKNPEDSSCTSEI

B1: chimeric anti-human CD38 antibody 48H1-B11 (antibody, V domains shown)
VH: EVQLKQSGPGLMQPSQSLSITCTVSGFSLTSYGIHWLRQSPGKGLEWLGVIWRGGSTDYNAAFMSRLSITKDNSKSQVFFKMNSLQGDDTAIYYCAKGKVTTGFYFDFWGQGTTLTVSS
VL: DIQMTQSSSSFSVSLGDRVTITCKASEDIYNRLVWYQQKPGNAPGLLISGVTSLETGVPSRFSGSGSGKDYTLTITSLQTEDVATYYCQQYWSTPYTFGGGTKLEIK
notes: also called chimeric antibody 48H1-B11; mAb48H1-B11 (murine parent)
B2: humanized CD38 antibody Ab031 (h48H1-VHv7 / h48H1-VKv7) (antibody, V domains shown)
VH: QVQLQESGPGLVKPSETLSLTCTVSGFSLTSYGIHWIRQPPGKGLEWIGVIWRGGSTDYNPSLKSRVTISKDNSKSQVSLKLSSVTAADTAVYYCAKGKVTTGFYFDFWGQGTLVTVSS
VL: EIVMTQSPPTLSLSPGERVTLSCRASEDIYNRLVWYQQKPGQAPRLLISGVTSLETSIPARFSGSGSGTDYTLTISSLQPEDFAVYYCQQYWSTPYTFGQGTKVEIK
notes: also called CM313-1
B3: humanized CD38 antibody Ab033 (h48H1-VHv8 / h48H1-VKv7) (antibody, V domains shown)
VH: QVQLQESGPGLVKPSETLSLTCTVSGFSLTSYGIHWLRQPPGKGLEWIGVIWRGGSTDYNPSLKSRVTISKDTSKSQVSLKLSSVTAADTAVYYCAKGKVTTGFYFDFWGQGTLVTVSS
VL: EIVMTQSPPTLSLSPGERVTLSCRASEDIYNRLVWYQQKPGQAPRLLISGVTSLETSIPARFSGSGSGTDYTLTISSLQPEDFAVYYCQQYWSTPYTFGQGTKVEIK
notes: also called CM313-2

How the values were obtained:
[1] = target: T1, recombinant human CD38 extracellular …; assay: ELISA, plate coated with human CD38 protein, detection with HRP goat anti-human IgG Fc, OD450
[2] = target: T2, human CD38 expressed on tumor cells …; assay: flow cytometry (FACS) on Daudi cells
Procedure: (§1) Different cells in logarithmic phase were blocked with 3% BSA for 30 minutes, and then plated into a U-shaped 96-well plate at 5×10⁴ cells/100 μL; centrifugation was conducted at 1100 rpm for 3 minutes, the supernatant was discarded, the cells were patted and loosed gently, 50 μL of serially diluted antibody (diluted 3-fold in 5 series, with an initial concentration of 30 μg/mL) was added to each well, and the mixture was incubated at 4° C. for 1 hour. After the incubation, 180 μL 0.5% BSA was added to each well, wash 3 times, 30 μL/well of secondary antibody Alexa Fluro 647 anti-human IgG (Jackson ImmunoResearch, Cat: 109-606-170) was added, and the mixture was incubated at 4° C. for 45 minutes. After the incubation, each well was washed 3 times with 180 μL 0.5% BSA, and finally resuspended in 50 μL PBS each well for iQue (Intellicyt, USA) assay.

[3] = target: T1, recombinant human CD38 extracellular …; assay: ELISA, plate coated with human CD38 protein, anti-human IgG Fc-HRP detection
Procedure: A 96-well plate was coated with human CD38 protein and incubated overnight at 4° C. The solution in wells were then discarded, washed 3 times with wash buffer, and blocked by the addition of 2% milk in PBS for 60 minutes. After washing 3 times with washing buffer, 100 μL of antibodies at different dilutions were added to each well, and the mixture was incubated at 37° C. for 1 hour; after washing 3 times with washing buffer, HPR-labeled goat anti-human IgG Fc was diluted at 1:5000 with 0.5% BSA, and the mixture was incubated at room temperature for 1 hour; after washing 3 times with washing buffer, 100 μL of TMB substrate solution was added for color development; after reaction at 37° C. for 10 minutes, the reaction was terminated with 50 μL of 2M sulfuric acid solution and the absorbance was read at 450 nm.

[4] = target: T2, human CD38 expressed on tumor cells …; assay: flow cytometry (FACS) on TALL-1 cells
Procedure: as §1

[5] = target: T1, recombinant human CD38 extracellular …; assay: SPR (Biacore), antibody captured on protein A chip, human CD38 recombinant protein as analyte, Langmuir 1:1 fit
[6] = target: T2, human CD38 expressed on tumor cells …; assay: flow cytometry (FACS) on Ramos.2G6.4C10 cells
Procedure: as §1

[7] = target: T2, human CD38 expressed on tumor cells …; assay: flow cytometry (FACS) on NALM-6 cells
Procedure: as §1

Row | Binder | EC50 (read off the curve) [1] [nM] | EC50 [2] [nM] | EC50 [3] [nM] | EC50 [4] [nM] | Kd [5] [nM] | koff [5] [s⁻¹] | kon [5] [M⁻¹ s⁻¹] | EC50 [6] [nM] | EC50 [7] [nM]
1 | B1 | ~0.1 |  |  |  |  |  |  |  | 
2 | B2 |  | 0.44 | 0.51 | 0.41 | 0.278 | 0.000556 | 2e+06 | 0.42 | 0.37
3 | B3 |  | 0.54 | 4.24 | 0.34 | 1.43 | 0.00532 | 3.71e+06 | 0.58 | 0.49

— patent US20230132604A1 (KEYMED BIOSCIENCES, published 2023)
